Results from the Immune Epitope Database (IEDB).
One block for each sequence: values may come before it.

How the values were obtained:
HLA-A*30:01 = test: IEDB peptide-MHC binding, purified MHC/direct/fluorescence; filed as Kd, often an IC50 or EC50 that approximates it; ≥ and ≤ were set here for values at or beyond the usual limits of such assays
HLA-B*35:01 [1] = test: IEDB peptide-MHC binding, purified MHC/competitive/fluorescence; filed as Kd, often an IC50 or EC50 that approximates it; ≥ and ≤ were set here for values at or beyond the usual limits of such assays; settings: source organism: West Nile virus
HLA-A*03:01 [2] = test: IEDB peptide-MHC binding, purified MHC/direct/fluorescence; filed as Kd, often an IC50 or EC50 that approximates it; ≥ and ≤ were set here for values at or beyond the usual limits of such assays
HLA-A*11:01 = test: as above
HLA-B*46:01 [3] = test: IEDB peptide-MHC binding, purified MHC/competitive/fluorescence; filed as Kd, often an IC50 or EC50 that approximates it; ≥ and ≤ were set here for values at or beyond the usual limits of such assays
HLA-A*01:01 = test: IEDB peptide-MHC binding, purified MHC/direct/fluorescence; filed as Kd, often an IC50 or EC50 that approximates it; ≥ and ≤ were set here for values at or beyond the usual limits of such assays
HLA-A*02:01 [4] = test: as above
HLA-A*26:01 [5] = test: as above
HLA-A*69:01 [6] = test: as above
HLA-B*07:02 = test: as above
HLA-B*08:01 = test: as above
HLA-B*15:01 [7] = test: as above
HLA-B*15:02 = test: as above; settings: source organism: Escherichia coli O157:H7
HLA-B*27:05 = test: as above
HLA-B*35:01 [8] = test: as above
HLA-B*40:01 = test: as above
HLA-B*44:02 = test: as above
HLA-B*46:01 [9] = test: as above; settings: source organism: Escherichia coli O157:H7
HLA-B*58:01 = test: as above
HLA-A*24:03 [10] = test: as above
HLA-A*31:01 = test: as above
HLA-A*02:03 = test: IEDB peptide-MHC binding, purified MHC/competitive/fluorescence; filed as Kd, often an IC50 or EC50 that approximates it; ≥ and ≤ were set here for values at or beyond the usual limits of such assays
HLA-A*02:12 = test: as above
HLA-A*02:19 = test: as above
HLA-A*03:01 [11] = test: as above
HLA-A*26:01 [12] = test: as above
HLA-A*29:02 = test: as above
HLA-B*15:01 [13] = test: as above; settings: source organism: Francisella tularensis subsp. tularensis FSC198
HLA-B*18:01 = test: as above
HLA-B*27:03 = test: as above
HLA-B*39:01 = test: as above
HLA-B*51:01 = test: as above
HLA-B*57:01 = test: as above
HLA-A*68:02 = test: as above
HLA-A*02:01 [14] = test: as above
HLA-A*02:16 = test: as above
HLA-A*69:01 [15] = test: as above
HLA-A*24:03 [16] = test: as above; settings: source organism: Rickettsia sibirica 246
[17] = source organism: Giardia lamblia ATCC 50803
[18] = source organism: Escherichia coli O157:H7
[19] = source organism: Salmonella enterica subsp. enterica serovar Typhimurium
[20] = source organism: Francisella tularensis subsp. tularensis FSC198
[21] = source organism: Escherichia coli B171
[22] = source organism: Pseudomonas aeruginosa UCBPP-PA14
[23] = source organism: Pseudomonas aeruginosa
[24] = source organism: Rickettsia sibirica 246

Sequence: WMILRAISF
Kd (HLA-A*30:01; source organism: West Nile virus SPU116/89): ≥ 20 µM
Kd (HLA-B*35:01 [1]): 1280 nM

Sequence: MLMFITSSH
Kd (HLA-A*03:01 [2]; [17]): 167 nM
Kd (HLA-A*11:01; [17]): 144 nM
Kd (HLA-A*30:01; [17]): ≥ 20 µM
Kd (HLA-B*46:01 [3]; [17]): 273 nM

Kd (HLA-A*01:01; [18]): ≥ 20 µM
Kd (HLA-A*02:01 [4]; [18]): ≥ 20 µM
Kd (HLA-A*03:01 [2]; [18]): ≥ 20000 nM
Kd (HLA-A*11:01; [18]): 1980 nM
Kd (HLA-A*26:01 [5]; [18]): ≥ 20 µM
Kd (HLA-A*69:01 [6]; [18]): ≥ 20 µM
Kd (HLA-B*07:02; [18]): ≥ 20000 nM
Kd (HLA-B*08:01; [18]): ≥ 20 µM
Kd (HLA-B*15:01 [7]; [18]): 79.6 nM
Kd (HLA-B*15:02): 1.01 µM
Kd (HLA-B*27:05; [18]): 0.0907 µM
Kd (HLA-B*35:01 [8]; [18]): 10.2 nM
Kd (HLA-B*40:01; [18]): ≥ 20 µM
Kd (HLA-B*44:02; [18]): ≥ 20 µM
Kd (HLA-B*46:01 [9]): ≥ 20 µM
Kd (HLA-B*58:01; [18]): ≥ 20 µM
Sequence: LQLTAVFAY

Sequence: RVNKGTGVK
Kd (HLA-A*01:01; [18]): ≥ 20 µM
Kd (HLA-A*02:01 [4]; [19]): 1.34 µM
Kd (HLA-A*03:01 [2]; [19]): 359 nM
Kd (HLA-A*11:01; [19]): 60.6 nM
Kd (HLA-A*24:03 [10]; [19]): 0.437 µM
Kd (HLA-A*26:01 [5]; [18]): ≥ 20 µM
Kd (HLA-A*30:01; [19]): 0.00181 µM
Kd (HLA-A*31:01; [19]): 0.103 µM
Kd (HLA-A*69:01 [6]; [18]): ≥ 20 µM
Kd (HLA-B*07:02; [19]): 12600 nM
Kd (HLA-B*08:01; [18]): ≥ 20 µM
Kd (HLA-B*15:01 [7]; [19]): 4450 nM
Kd (HLA-B*27:05; [18]): ≥ 20 µM
Kd (HLA-B*40:01; [18]): ≥ 20 µM
Kd (HLA-B*44:02; [18]): ≥ 20 µM
Kd (HLA-B*58:01; [18]): ≥ 20 µM

Sequence: IPRQWHPFA
Kd (HLA-A*01:01; [17]): ≥ 20 µM
Kd (HLA-A*02:01 [4]; [17]): ≥ 20 µM
Kd (HLA-A*03:01 [2]; [17]): ≥ 20000 nM
Kd (HLA-A*11:01; [17]): ≥ 20000 nM
Kd (HLA-A*24:03 [10]; [17]): 10.6 µM
Kd (HLA-A*26:01 [5]; [17]): ≥ 20 µM
Kd (HLA-A*30:01; [17]): 4.66 µM
Kd (HLA-A*31:01; [17]): ≥ 20 µM
Kd (HLA-A*69:01 [6]; [17]): ≥ 20 µM
Kd (HLA-B*07:02; [17]): 154 nM
Kd (HLA-B*08:01; [17]): 3.8 µM
Kd (HLA-B*15:01 [7]; [17]): ≥ 20000 nM
Kd (HLA-B*27:05; [17]): ≥ 20 µM
Kd (HLA-B*35:01 [8]; [17]): 1100 nM
Kd (HLA-B*40:01; [17]): ≥ 20 µM
Kd (HLA-B*44:02; [17]): ≥ 20 µM
Kd (HLA-B*58:01; [17]): ≥ 20 µM

Sequence: RSFPEWDYI
Kd (HLA-A*02:03; [20]): ≥ 20 µM
Kd (HLA-A*02:12; [20]): ≥ 20 µM
Kd (HLA-A*02:19; [20]): ≥ 20 µM
Kd (HLA-A*03:01 [11]; [20]): ≥ 20 µM
Kd (HLA-A*26:01 [12]; [20]): ≥ 20 µM
Kd (HLA-A*29:02; [20]): ≥ 20 µM
Kd (HLA-B*15:01 [13]): ≥ 20 µM
Kd (HLA-B*18:01; [20]): ≥ 20 µM
Kd (HLA-B*27:03; [20]): ≥ 20 µM
Kd (HLA-B*39:01; [20]): ≥ 20 µM
Kd (HLA-B*46:01 [3]; [20]): ≥ 20000 nM
Kd (HLA-B*51:01; [20]): ≥ 20 µM
Kd (HLA-B*57:01; [20]): 97.9 nM

Sequence: TNPAITSRV
Kd (HLA-A*68:02; source organism: Vibrio cholerae 2740-80): 0.0217 µM

Kd (HLA-A*02:01 [14]; [21]): ≥ 20 µM
Kd (HLA-A*02:03; [21]): ≥ 20 µM
Kd (HLA-A*02:12; [21]): ≥ 20 µM
Kd (HLA-A*02:16; [21]): ≥ 20 µM
Kd (HLA-A*02:19; [21]): ≥ 20 µM
Kd (HLA-A*03:01 [11]; [21]): ≥ 20 µM
Kd (HLA-A*26:01 [12]; [21]): ≥ 20 µM
Kd (HLA-A*29:02; [21]): ≥ 20 µM
Kd (HLA-A*68:02; [21]): ≥ 20 µM
Kd (HLA-A*69:01 [15]; [21]): ≥ 20 µM
Kd (HLA-B*18:01; [21]): ≥ 20 µM
Kd (HLA-B*27:03; [21]): ≥ 20 µM
Kd (HLA-B*39:01; [21]): ≥ 20 µM
Kd (HLA-B*51:01; [21]): ≥ 20 µM
Kd (HLA-B*57:01; [21]): 209 nM
Sequence: KAIIDTAQF

Kd (HLA-A*01:01; [22]): ≥ 20 µM
Kd (HLA-A*02:01 [4]; [22]): ≥ 20 µM
Kd (HLA-A*03:01 [2]; [22]): ≥ 20000 nM
Kd (HLA-A*11:01; [22]): ≥ 20000 nM
Kd (HLA-A*24:03 [10]; [22]): ≥ 20 µM
Kd (HLA-A*26:01 [5]; [22]): ≥ 20 µM
Kd (HLA-A*30:01; [23]): 8.23 µM
Kd (HLA-A*31:01; [22]): ≥ 20 µM
Kd (HLA-A*69:01 [6]; [22]): ≥ 20 µM
Kd (HLA-B*07:02; [23]): 42 nM
Kd (HLA-B*08:01; [22]): ≥ 20 µM
Kd (HLA-B*15:01 [7]; [23]): ≥ 5000 nM
Kd (HLA-B*27:05; [22]): ≥ 20 µM
Kd (HLA-B*35:01 [8]; [23]): 124 nM
Kd (HLA-B*40:01; [22]): ≥ 20 µM
Kd (HLA-B*58:01; [22]): ≥ 20 µM
Sequence: SPADERAVA

Kd (HLA-B*15:01 [7]; [18]): 75.1 nM
Kd (HLA-B*15:02): 16 µM
Kd (HLA-B*46:01 [9]): ≥ 20 µM
Sequence: RMFEKSTHH

Sequence: AMYDPQTYY
Kd (HLA-A*02:01 [14]; [24]): ≥ 20 µM
Kd (HLA-A*02:12; [24]): ≥ 20 µM
Kd (HLA-A*02:16; [24]): ≥ 20 µM
Kd (HLA-A*02:19; [24]): ≥ 20 µM
Kd (HLA-A*03:01 [11]; [24]): 0.0142 µM
Kd (HLA-A*24:03 [16]): ≥ 20 µM
Kd (HLA-A*26:01 [12]; [24]): ≥ 20 µM
Kd (HLA-A*29:02; [24]): 0.0002 µM
Kd (HLA-A*68:02; [24]): ≥ 20 µM
Kd (HLA-A*69:01 [15]; [24]): ≥ 20 µM
Kd (HLA-B*18:01; [24]): ≥ 20 µM
Kd (HLA-B*27:03; [24]): ≥ 20 µM
Kd (HLA-B*39:01; [24]): ≥ 20 µM
Kd (HLA-B*51:01; [24]): ≥ 20 µM
Kd (HLA-B*57:01; [24]): ≥ 20000 nM
